The values below come from US20070066516A1, “Compounds comprising cyclized somatostatin receptor binding peptides” (priority 2005, published 2007).

The target in one assay is SSTR5 (Homo sapiens, UniProt P35346). Briefly: Radioligand binding assay on membranes of CHO-K1 cells expressing SSTR5. The following applies: for IC50: membranes from CHO-K1 cells stably expressing cloned somatostatin receptor 5; for Ratio 2/5 in %: ratio of IC50 SSTR2 / IC50 SSTR5 in %. As to the method: (§1) Radiolabeling binding assays were carried out as described in the prior art like, e.g. in Gazal S. et al (2002) J. Med. Chem. 45: 1665-1671. The radioligand binding assays were carried out on membranes prepared from CHO-K1 cells stably expressing individually cloned somatostatin receptors 2 or 5 (SSTR2 or SSTR5). Cells were grown for 2 days for almost confluence and were washed and scraped into 50 mM ice-cold Tris-HCl, pH 7.8, containing 1 mM EGTA, 5 mM MgCl2, […], 0.1 mM PMSF, and 0.5 mg/mL aprotinin (buffer A) and were centrifuged at 10,000 rpm for 10 min at 4° C. (in Sorvall RC 26 Plus ultracentrifuge, rotor SS-34). The pellet was resuspended in buffer A and homogenized with a Polytron PT 1200 homogenizer (Kinematica AG, Switzerland) (setting 2, 3 strokes 10 s each). The homogenate was then centrifuged at 20 000 rpm for 20 min at 4° C. The pellet was resuspended in buffer A and homogenized using the Polytron homogenizer (setting 2, 3 strokes 5 s each). The protein content was determined by Bradford, and the membrane preparation was diluted in buffer A containing 1 mg/mL bovine serum albumin (BSA) to a final 0.2 or 0.4 mg/mL membrane protein (depending on the specific somatostatin receptor used).
(§2) The radioligand binding assay was performed in 96 well microtiter plates (Maxisorp plates, Nunc, Denmark). Cell membranes ([…] protein) were incubated with the various cyclized peptides indicated in Table 1 & 2, which comprised a lanthanide chelation unit, in a final volume of 250 μL, for 45 min. at room temperature in the presence or absence of competing peptides. Nonspecific binding was defined as the radioactivity remaining bound in the presence of […] somatostatin. At the end of the binding, reaction free radioligand was separated from bound Ligand by rapid filtration through UniFilter GF/C plates preincubated in a solution of 5 g/L polyethyleneimine and 1 g/L BSA. The filtration was performed in Filter-Mate Cell Harvester (Packard Instrument Company, U.S.A.). After filtration, the filters were washed several times with cold buffer A containing 1 mg/mL BSA and allowed to dry overnight at room temperature. Then, bound radioactivity was counted. The binding assays were performed in triplicate wells. Data from radioligand binding were used to generate inhibition curves, and IC50 values were determined for each of the tested peptides. The saturation binding data were analyzed by the method of Scatchard, and IC50 values are expressed as mean±SEM (standard error of the mean).

For a further assay, the target named is SSTR2 (Homo sapiens, UniProt P30874). Briefly: Radioligand binding assay on membranes of CHO-K1 cells expressing SSTR2. The following applies: membranes from CHO-K1 cells stably expressing cloned somatostatin receptor 2. As to the method: as §1, §2
Assay [1] has as its target T1, somatostatin receptor 5 (UniProt P35346 1-364, limits assumed).
T1 construct: whole, on cells; Assayed as membrane preparation of CHO-K1 cells stably expressing the cloned receptor; also called SSTR5; somatostatin receptor subtype 5
Kind of assay: radioligand competition binding, membranes of CHO-K1 cells expressing SSTR5. (In general: Displacement assays read how much labelled ligand stays bound in the presence of the test substance.)

Assay [2] concerns the target T2, somatostatin receptor 2 (UniProt P30874 1-369, limits assumed).
T2 construct: whole, on cells; Assayed as membrane preparation of CHO-K1 cells stably expressing the cloned receptor; also called SSTR2; somatostatin receptor subtype 2
Kind of assay: radioligand competition binding, membranes of CHO-K1 cells expressing SSTR2.

The target of assay [3] is T1, somatostatin receptor 5. Briefly: ratio of IC50 on SSTR2 to IC50 on SSTR5 (reference SSTR2), radioligand competition binding on CHO-K1 membranes.
For assay [4], the target named is T2, somatostatin receptor 2. Kind of assay: radioligand competition binding, membranes of CHO-K1 cells expressing SSTR2. The source holds these as a separate data set.
Assay [5] addresses T1, somatostatin receptor 5. Kind of assay: ratio of IC50 on SSTR2 to IC50 on SSTR5 (reference SSTR2), radioligand competition binding on CHO-K1 membranes. This is another data set of the same source.
Assay [6] has as its target T1, somatostatin receptor 5. Kind of assay: radioligand competition binding, membranes of CHO-K1 cells expressing SSTR5. This is another data set of the same source.

Read-outs that look alike come from different tables or passages of the source. Where a SMILES comes first, the peptide text is derived from it. Bridges are numbered along the chain shown (N, C = ends). Roman numbers before positions name the chains, in order. Where no end group is shown, it is not given here. [ ]: non-standard residue; d: D form. βDpr = 2,3-diaminopropanoic acid whose beta-amino group bears the -CH2CO- link to the S of (NMe)hCys; GlyMeDOTA = DOTA chelator on the lysine side chain; Tpi = O=C(O)[C@@H]1Cc2c([nH]c3ccccc23)CN1; βAla(cyclopropyl) = beta-Ala(cyclopropyl); Dip = N[C@H](C(=O)O)C(c1ccccc1)c1ccccc1; Phe(4-NH2) = Nc1ccc(C[C@H](N)C(=O)O)cc1; 1Nal = N[C@@H](Cc1cccc2ccccc12)C(=O)O; NMeF = CN[C@@H](Cc1ccccc1)C(=O)O; NMehCys = CN[C@@H](CCS)C(=O)O; Thz = O=C(O)[C@@H]1CSCN1; Dap = NC[C@H](N)C(=O)O

Sequence of SSTR2 (P30874 whole entry): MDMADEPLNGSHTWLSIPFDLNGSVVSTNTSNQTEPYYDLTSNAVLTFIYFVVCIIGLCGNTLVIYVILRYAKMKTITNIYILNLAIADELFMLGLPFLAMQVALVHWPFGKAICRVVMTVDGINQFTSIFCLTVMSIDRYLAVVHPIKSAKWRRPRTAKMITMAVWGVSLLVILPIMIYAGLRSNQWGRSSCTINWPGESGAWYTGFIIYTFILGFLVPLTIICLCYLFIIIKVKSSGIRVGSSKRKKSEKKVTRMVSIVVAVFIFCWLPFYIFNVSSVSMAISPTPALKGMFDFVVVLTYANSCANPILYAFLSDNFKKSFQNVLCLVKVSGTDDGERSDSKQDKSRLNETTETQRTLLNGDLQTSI
T2 sequence (P30874 whole entry): as above
Sequence of SSTR5 (P35346 whole entry): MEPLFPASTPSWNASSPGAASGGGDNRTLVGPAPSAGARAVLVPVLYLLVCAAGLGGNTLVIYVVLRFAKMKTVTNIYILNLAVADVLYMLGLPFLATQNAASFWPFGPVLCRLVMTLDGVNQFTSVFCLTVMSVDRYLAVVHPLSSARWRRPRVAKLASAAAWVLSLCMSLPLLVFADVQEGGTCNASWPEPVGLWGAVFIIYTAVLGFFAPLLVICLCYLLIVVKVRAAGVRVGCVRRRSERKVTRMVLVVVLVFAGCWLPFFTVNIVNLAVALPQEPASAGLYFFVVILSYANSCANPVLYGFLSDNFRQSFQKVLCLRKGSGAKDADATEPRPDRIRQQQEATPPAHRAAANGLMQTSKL
T1 sequence (P35346 whole entry): as above

The IC50 is the concentration at which inhibition is half-maximal. For `CSCC[C@@H]1NC(=O)[C@H]([C@@H](C)O)NC(=O)[C@H](CCCCN)NC(=O)[C@@H](Cc2c[nH]c3ccccc23)NC(=O)[C@@H]2CSCN2C(=O)[C@H](Cc2ccccc2)NC1=O` [P2297, cyclo[ThioPro-DTrp-Lys-Thr-Met-Phe]] (cyclo([Thz][dW]KTMF)), at SSTR5, the IC50 was determined as 34.5 nM and the “Ratio 2/5 in %” value stood at 37.1%. The same molecule had an IC50 on SSTR2 of 12.8 nM.

Consider `CSCC[C@@H]1NC(=O)[C@H]([C@@H](C)O)NC(=O)[C@H](CCCCN)NC(=O)[C@@H](Cc2c[nH]c3ccccc23)NC(=O)[C@H](C(c2ccccc2)c2ccccc2)NC(=O)[C@H](Cc2ccccc2)N(C)C1=O` [P2326, cyclo[DiphenylAla-DTrp-Lys-Thr-Met-(N-Me)Phe]] (cyclo([Dip][dW]KTM[NMeF])), for which, on SSTR5, the IC50 turned out to be 42.2 nM and the “Ratio 2/5 in %” value was found to be 0.42%. For the same molecule, at SSTR2, the IC50 stood at 0.177 nM.

Consider `CSCC[C@@H]1NC(=O)[C@H](C(C)C)NC(=O)[C@H](CCCCN)NC(=O)[C@@H](Cc2c[nH]c3ccccc23)NC(=O)[C@H](Cc2cccc3ccccc23)NC(=O)[C@H](Cc2ccccc2)N(C)C1=O` [P2329, cyclo[1Nal-DTrp-Lys-Val-Met-(N-Me)Phe]] (cyclo([1Nal][dW]KVM[NMeF])), for which, at SSTR5, the IC50 was 4.17 nM and the “Ratio 2/5 in %” value was found to be 10.5%. On SSTR2, the IC50 was determined as 0.437 nM.

B1: P2300 (peptide)
peptide: cyclo(Y[dW]K[βAla(cyclopropyl)]M[NMeF])
notes: Cyclic hexapeptide; also called cyclo[Tyr-DTrp-Lys-BAla(cyclopropyl)-Met-(N-Me)Phe]
Take B1: the IC50 stood at 20.7 nM with somatostatin receptor 5 [1] and 0.198 nM in the assay with somatostatin receptor 2 [2]. For the same molecule, the “Ratio 2/5 in %” value with somatostatin receptor 5 [3] stood at 0.96%.

B2: P2269 (peptide)
peptide: cyclo(W[dW]KTM[NMeF])
SMILES: CSCC[C@@H]1NC(=O)[C@H]([C@@H](C)O)NC(=O)[C@H](CCCCN)NC(=O)[C@@H](Cc2c[nH]c3ccccc23)NC(=O)[C@H](Cc2c[nH]c3ccccc23)NC(=O)[C@H](Cc2ccccc2)N(C)C1=O
notes: also called cyclo[Trp-DTrp-Lys-Thr-Met-(NMe)Phe]
Turning to B2, the IC50 was 3.27 nM with somatostatin receptor 5 [1] and 0.501 nM with somatostatin receptor 2 [2]. Also, the “Ratio 2/5 in %” value in the assay with somatostatin receptor 5 [3] was determined as 15.3%.

B3: P2045 (peptide)
peptide 1: Y[dW]KTF[NMehCys]
peptide 2: [βDpr][Phe(4-NH2)]CTS-OH
modifications: thioether I:6-II:1 via CH2CO; also: head-to-tail to a chain's N/C-terminus
notes: also called cyclo[Tyr-DTrp-Lys-Thr-Phe-(NMe)hCys]-CH2CO-βDpr-Phe(4-NH2)-Cys-Thr-Ser-OH
Take B3: the IC50 in the assay with somatostatin receptor 2 [4] came to 0.21 nM; with somatostatin receptor 5 [6] it was 249 nM. The “Ratio 2/5 in %” value in the assay with somatostatin receptor 5 [5] was found to be 0.084%.

B4: P2274 (peptide)
peptide: cyclo(Y[dW]KTM[Tpi])
SMILES: CSCC[C@@H]1NC(=O)[C@H]([C@@H](C)O)NC(=O)[C@H](CCCCN)NC(=O)[C@@H](Cc2c[nH]c3ccccc23)NC(=O)[C@H](Cc2ccc(O)cc2)NC(=O)[C@@H]2Cc3c([nH]c4ccccc34)CN2C1=O
notes: Cyclic hexapeptide; also called cyclo[Tyr-DTrp-Lys-Thr-Met-Tpi]
For B4, the IC50 in the assay with somatostatin receptor 5 [1] turned out to be 19.9 nM; in the assay with somatostatin receptor 2 [2] it was 1.22 nM. For the same molecule, the “Ratio 2/5 in %” value with somatostatin receptor 5 [3] was determined as 6.1%.

B5: P2267 (peptide)
peptide: cyclo(Y[dW]K[Dap]M[NMeF])
SMILES: CSCC[C@@H]1NC(=O)[C@H](CN)NC(=O)[C@H](CCCCN)NC(=O)[C@@H](Cc2c[nH]c3ccccc23)NC(=O)[C@H](Cc2ccc(O)cc2)NC(=O)[C@H](Cc2ccccc2)N(C)C1=O
notes: Cyclic hexapeptide; also called cyclo[Tyr-DTrp-Lys-Dpr-Met-(NMe)Phe]
With B5, the IC50 with somatostatin receptor 5 [1] was found to be 25.9 nM; with somatostatin receptor 2 [2] it was 0.501 nM. Besides, the “Ratio 2/5 in %” value with somatostatin receptor 5 [3] turned out to be 1.9%.

B6: P2323 (peptide)
peptide: cyclo([1Nal][dW]KTK(GlyMeDOTA)[NMeF])
notes: Cyclic hexapeptide carrying a DOTA chelator on Lys 5; also called cyclo[1Nal-DTrp-Lys-Thr-Lys(GlyMeDOTA)-(N-Me)Phe]
For B6, the IC50 worked out at 9.37 nM with somatostatin receptor 5 [1] and 37.4 nM with somatostatin receptor 2 [2]. The “Ratio 2/5 in %” value with somatostatin receptor 5 [3] is 399%.

B7: ReP2045 (peptide)
peptide 1: Y[dW]KTF[NMehCys]
peptide 2: [βDpr][Phe(4-NH2)]CTS-OH
modifications: thioether I:6-II:1 via CH2CO; not fully specified; also: head-to-tail to a chain's N/C-terminus
notes: also called cyclo[Tyr-DTrp-Lys-Thr-Phe-(NMe)hCys]-CH2CO-βDpr-Phe(4-NH2)-Cys-Thr-Ser-OH-[R = 0]
For B7, the IC50 was determined as 0.089 nM with somatostatin receptor 2 [4] and 627 nM with somatostatin receptor 5 [6]. Further, in the assay with somatostatin receptor 5 [5], the “Ratio 2/5 in %” value stood at 0.014%.

B8: P1839 (peptide)
peptide: cyclo(Y[dW]KTF[NMehCys])
SMILES: C[C@@H](O)[C@@H]1NC(=O)[C@H](CCCCN)NC(=O)[C@@H](Cc2c[nH]c3ccccc23)NC(=O)[C@H](Cc2ccc(O)cc2)NC(=O)[C@H](CCS)N(C)C(=O)[C@H](Cc2ccccc2)NC1=O
notes: Known somatostatin analogue tested as comparison; also called cyclo[Tyr-DTrp-Lys-Thr-Phe-(NMe)hCys]
For the molecule B8, the “Ratio 2/5 in %” value in the assay with somatostatin receptor 5 [5] is 0.15%.
